The target of the assay is T. laurifolia Δ6-18:0-ACP desaturase, N-11 truncation (Thunbergia laurifolia). The experiment in a line: crystal structure.

By stoichiometry N is commonly meant the number of molecules, sites or subunits per partner or assembly. As to “T. laurifolia Δ6-18:0-ACP desaturase, N-11 truncation (enzyme)”, the stoichiometry N came out at 2.

The values above are taken from publication PMC9335243.
